40 molecules from patent US20210145976A1 can be followed below.

Positions count from the first letter of the chain named.

The experiment addresses human serum albumin (human) (UniProt P02768). In words: screening ELISA. For orientation: An ELISA detects its analyte on a solid surface through an enzyme-linked reagent.

human serum albumin (human), sequence (P02768 25-609 limits assumed): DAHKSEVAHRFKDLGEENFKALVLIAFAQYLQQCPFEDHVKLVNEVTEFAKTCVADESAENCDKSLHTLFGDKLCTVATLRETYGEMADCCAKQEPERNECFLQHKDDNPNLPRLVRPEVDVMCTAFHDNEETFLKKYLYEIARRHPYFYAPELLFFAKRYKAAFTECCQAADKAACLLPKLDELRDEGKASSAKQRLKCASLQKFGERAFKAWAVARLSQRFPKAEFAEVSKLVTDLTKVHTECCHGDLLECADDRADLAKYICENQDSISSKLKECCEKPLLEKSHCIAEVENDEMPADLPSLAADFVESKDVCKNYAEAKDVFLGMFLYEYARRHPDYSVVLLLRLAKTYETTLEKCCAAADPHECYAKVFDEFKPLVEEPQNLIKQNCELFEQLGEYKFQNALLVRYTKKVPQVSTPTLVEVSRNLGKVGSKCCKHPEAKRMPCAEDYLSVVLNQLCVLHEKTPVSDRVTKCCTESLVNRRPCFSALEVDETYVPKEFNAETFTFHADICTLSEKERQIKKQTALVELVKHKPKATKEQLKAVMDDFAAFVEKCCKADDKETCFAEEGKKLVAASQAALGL

B1: SEQ ID NO 90 (designed binder)
chain: MLPAPKNLVVSRVTEDSARLSWTAPDAAFDSFTIHYWEFDPPGEAIVLTVPGSERSYDLTGLKPGTEYTVYIEGVKGGWWSKPLSAIFTT
In turn, B1 showed an HSA of 2550.

B2: SEQ ID NO 117 (designed binder)
chain: B1 chain with H35P, W37G, F39A, D40F, P41N, T69D, Y71F, W79T, W80L, K82W
B2: the HSA came out at 23500.

B3: SEQ ID NO 98 (designed binder)
chain: B1 chain with V13I, T33D, H35P, W37G, P41T, P42I, T69D, W79H, W80L, K82W
In the case of B3, the HSA was determined as 15500.

B4: SEQ ID NO 91 (designed binder)
chain: B1 chain with T33V, H35E, F39R, D40T, P41Q, T69D, Y71W, E73S, W79K, K82E
As to B4, the HSA was 1800.

B5: SEQ ID NO 118 (designed binder)
chain: B1 chain with T33R, H35L, W37G, F39V, P42W, T69D, Y71W, W79K, W80L, K82W
For the molecule B5, the HSA was found to be 18800.

B6: SEQ ID NO 111 (designed binder)
chain: MLPAPKNLVVSRVTEDSARLSWTAPDAAFDSFWIYYYESVGTGEAIVLTVPGSERSYDLTGLKPGTEYFVDISGVKVGTYSLPLSAIFTT
For the molecule B6, the HSA came to 7450.

B7: SEQ ID NO 36 (designed binder)
chain: MLPAPKNLVVSRVTEDSARLSWTAPDAAFDSFTITYIEWWENGEAIALSVPGSERSYDLTGLKPGTEYQVGIAGVKGGYKSYPLWALFTT
As to B7, the HSA worked out at 6160.

B8: SEQ ID NO 38 (designed binder)
chain: MLPAPKNLVVSRVTEDSARLSWTAPDAAFDSFHIAYEESHTTGEAIFLRVPGSERSYDLTGLKPGTEYSVSIEGVKGGHYSPPLTAKFTT
The molecule B8 yielded an HSA of 4160.

B9: SEQ ID NO 95 (designed binder)
chain: MLPAPKNLVVSRVTEDSARLSWTAPDAAFDSFRISYYEWYDLGEAIVLTVPGSERSYDLTGLKPGTEYWVDIAGVKGGYYSYPLSAIFTT
On to B9, for which the HSA is 1900.

B10: SEQ ID NO 102 (designed binder)
chain: MLPAPKNLVVSRVTEDSARLSWTAPDAAFDSFSIDYDEPQPVGEAIVLTVPGSERSYDLTGLKPGTEYRVDIWGVKGGPTSGPLRATFTT
Molecule B10 returned an HSA of 13400.

B11: SEQ ID NO 93 (designed binder)
chain: MLPAPKNLVVSRVTEDSARLSWTAPDAAFDSFYIGYLEPGDNGEAIVLTVPGSERSYDLTGLKPGTEYNVSIGGVKGGLGSYPLSAIFTT
Turning to B11, the HSA was 1650.

B12: SEQ ID NO 113 (designed binder)
chain: MLPAPKNLVVSRVTEDSARLSWTAPDAAFDSFDIHYKEHSWWGEAIVLTVPGSERSYDLTGLKPGTEYIVPIPGVKGGGISRPLSAIFTT
For B12, the HSA was determined as 22600.

B13: SEQ ID NO 88 (designed binder)
chain: MLPAPKNLVVSRVTEDSARLSWTAPDAAFDSFWIEYFEWTVGGEAIVLTVPGSERSYDLTGLKPGTEYYVSIYGVKGGWLSPPLSAIFTT
B13 came in with an HSA of 6000.

B14: SEQ ID NO 104 (designed binder)
chain: B13 chain with R12H, W33D, F37Y, W39L, T40V, V41G, G42S, S71A, W79Y, P82R
B14 came in with an HSA of 1700.

B15: SEQ ID NO 114 (designed binder)
chain: B13 chain with W33A, F37W, W39A, T40V, V41G, G42S, Y69H, S71Y, W79Y, P82L
In turn, B15 registered an HSA of 4200.

B16: SEQ ID NO 120 (designed binder)
chain: B9 chain with S35E, Y37I, Y40W, D41V, L42G, A73K, Y79K, Y80R
Molecule B16 had an HSA of 1850.

B17: SEQ ID NO 103 (designed binder)
chain: B13 chain with P3L, W33A, W39Y, V41G, G42E, S71G, W79Y, P82R
B17: the HSA turned out to be 1200.

B18: SEQ ID NO 125 (designed binder)
chain: B13 chain with W33V, W39F, T40V, V41G, G42E, Y69D, S71G, W79S, P82S
As for B18, the HSA was found to be 1050.

B19: SEQ ID NO 94 (designed binder)
chain: MLPAPKNLVVSRITEDSARLSWTAPDAAFDSFGIYYYEWWSTGEAIVLTVPGSERSYDLTGPKPGTEYYVKISGVKGGYRSYPLSAIFTT
In turn, B19 displayed an HSA of 9900.

B20: SEQ ID NO 39 (designed binder)
chain: B19 chain with I13V, G33D, Y35D, Y37R, S41T, T42L, P62L, K71N, S73Q, Y79L
The molecule B20 had an HSA of 4160.

B21: SEQ ID NO 84 (designed binder)
chain: MLPAPKNLVVSRVTEDSARLSWTAPDAAFDSFPIYYWEVFPAGEAIELDVPGSERSYDLTGLKPGTEYFVRIEGVKGGASSYPLRAEFTT
B21: the HSA stood at 3850.

B22: SEQ ID NO 99 (designed binder)
chain: MLPAPKNLVVSRVTEDSARLSWTAPDAAFDSFGIQYNEFVFRGEAIVLTVPGSERSYDLTGLKPGTEYFVPISGVKGGDDSRPLSAIFTT
B22: the HSA was found to be 8150.

B23: SEQ ID NO 107 (designed binder)
chain: B22 chain with G33F, N37T, F39S, V40H, F41W, R42V, F69A, S73E, D80S, R82T
B23 showed an HSA of 4050.

B24: SEQ ID NO 97 (designed binder)
chain: MLPAPKNLVVSRVTEDSARLSWTAPDAAFDSFFISYFEGWASGEAIHLYVPGSERSYDLTGLKPGTEYSVHIQGVKGGQPSTPLSAIFTT
In the case of B24, the HSA came out at 2200.

B25: SEQ ID NO 115 (designed binder)
chain: MLPAPKNLVVSRVTEDSARLSWTAPDAAFDSFFIGYLEPQPPGEAIVLTVPGSERSYDLTGLKPGTEYNVTIQGVKGGFPSMPLSAIFTTT
The molecule B25 gave an HSA of 3450.

B26: SEQ ID NO 37 (designed binder)
chain: MLPAPKNLVVSRVTEDSARLSWTAPDAAFDSFHIIYTEEEKEGEAIYLRVPGSERSYDLTGLKPGTEYLVEIEGVKGGKRSVPLNASFTT
B26: the HSA came to 2720.

B27: SEQ ID NO 124 (designed binder)
chain: MLPAPKNLVVSRVTEDSARLSWTAPDAAFDSFSIDYPEFPVRGEAIVLTVPGSERSYDLTGLKPGTEYAVTIWGVKGGFTSQPLSAIFTT
In turn, B27 returned an HSA of 3450.

B28: SEQ ID NO 119 (designed binder)
chain: MLPAPKNLVVSRVTEDSARLSWTAPDAAFDSFHIEYEETPQKGEAIFLRVPGSERSYDLTGLKPGTEYVVNIRGVKGGDLSSPLGALFTT
As to B28, the HSA is 1850.

B29: SEQ ID NO 126 (designed binder)
chain: MLPAPKNLVVSRVTEDSARLSWTAPDAAFDSFSIDYLELGESGEAIVLTVPGSERSYDLTGLKPGTEYWVYIFGVKGGYPSAPLSAIFTT
B29 returned an HSA of 1750.

B30: SEQ ID NO 105 (designed binder)
chain: MLPAPKNLVVSRVTEDSARLSWTAPDAAFDSFGIAYYERSGAGEAIVLTVPGSERSYDLTGLKPGTEYMVYINGVKGGFVSSPLSAIFTT
B30 had an HSA of 1400.

B31: SEQ ID NO 122 (designed binder)
chain: MLPAPKNLVVSRVTEDSARLSWTAPDAAFDSFQIPYWEQSLGGEAIVLTVPGSERSYDLTGLKPGTEYEVWIEGVKGGDLSFPLSAISTT
Consider B31, for which the HSA stood at 29600.

B32: SEQ ID NO 85 (designed binder)
chain: MLPAPKNLVVSRVTEDSARLSWTAPDAAFDSFFIWYWEKSVDGEAIVLTVPGSERSYDLTGLKPGTEYNVGIQGVKGGTPSDPLSAIFTT
Molecule B32 registered an HSA of 2500.

B33: SEQ ID NO 86 (designed binder)
chain: B32 chain with F33I, W37A, K39W, S40V, V41N, N69R, G71E, Q73T, P80W, D82R
The molecule B33 came in with an HSA of 2250.

B34: SEQ ID NO 100 (designed binder)
chain: B32 chain with F33W, W35E, K39V, S40V, V41G, D42F, N69W, Q73Y, T79N, D82V
B34: the HSA was 2350.

B35: SEQ ID NO 121 (designed binder)
chain: B27 chain with L62P, A69N, W73Q, T80P, Q82M
B35 yielded an HSA of 28600.

B36: SEQ ID NO 110 (designed binder)
chain: MLPAPKNLVVSRVTEDSARLSWTAPDAAFDSFFIHYHEWWEAGEAIVLTVPGSERSYDLTGLKPGTEYLVDIPGVKGGDLSVPLSAIFTT
Consider B36, for which the HSA amounted to 18800.

B37: SEQ ID NO 106 (designed binder)
chain: MLPAPKNLVVSRVTEDSARLSWTAPDAAFDSFTIAYEEHGLVGEAIYLRVPGSERSYDLTGLKPGTEYHVGIMGVKGGVFSSPLSAIFTT
The molecule B37 displayed an HSA of 1200.

B38: SEQ ID NO 109 (designed binder)
chain: B8 chain with S39L, H40V, T42E, F47Y, S69L, S71D, Y80L, P82S, T85S, K87I
On to B38, for which the HSA was found to be 1250.

B39: SEQ ID NO 35 (designed binder)
chain: MLPAPKNLVVSRVTEDSARLSWTAPDAAFDSFEIAYFEAIWNGEAIYLTVPGSERSYDLTGLKPGTEYQVEIRGVKGGPTSRPLFAWFTT
The molecule B39 came in with an HSA of 1520.

B40: SEQ ID NO 101 (designed binder)
chain: MLPAPKNLVVSRVTEDSARLSWTAPDAAFDSFAIDYDEPINSGEAIVLTVPGSERSYDLTGPKPGTEYEVEIYGVKGGYLSRPLSAIFTT
The molecule B40 registered an HSA of 9100.
